Test results from paper PMC5262380, “Structural insights into the mechanism of the DEAH-box RNA helicase Prp43” (eLife, 2017).

Experiments:
[1] = target: ctPrp43 (DEAH-box RNA helicase Prp43 from Chaetomium thermophilum), wild type (C. thermophilum) (UniProt G0RY84)
[2] = target: ctPrp43 (DEAH-box RNA helicase Prp43 from Chaetomium thermophilum), wild type (C. thermophilum) (UniProt G0RY84); remark: listed apart in the source
[3] = target: ctPrp43(F181C, N623C) (C. thermophilum)
[4] = target: ctPrp43(R180G, F181G) (C. thermophilum)
[5] = target: ctPrp43(Y348G, T350G) (C. thermophilum)
[6] = target: ctPrp43(R180G, F181G, Y348G, T350G) (C. thermophilum)

Substance | helicase activity (maximal unwinding velocity of a dsRNA with 3' overhang; 250 nM ctPrp43, 1.25 uM G-patch; ctPrp43 alone 0.54 nM/min) [1] | ATPase activity kcat with five-fold excess of G-patch, no RNA (ctPrp43 alone 1.81 min^-1) [2] | ATPase activity kcat with five-fold excess of G-patch, no RNA (ctPrp43-IDSB alone 5.04 min^-1) [3] | ATPase activity kcat with five-fold excess of G-patch, no RNA (ctPrp43-HT alone 13.21 min^-1) [4] | ATPase activity kcat with five-fold excess of G-patch, no RNA (ctPrp43-HL alone 6.19 min^-1) [5] | ATPase activity kcat with five-fold excess of G-patch, no RNA (ctPrp43-HT&HL alone 7.61 min^-1) [6]
ctNtr1(242-305), truncated G-patch construct of the C. thermophilum Ntr1 homolog (domain or fragment) | 1.98 nM/min | 0.0693 s⁻¹ |  |  |  | 
ctPfa1(662-742), truncated G-patch construct of the C. thermophilum Pfa1 homolog (domain or fragment) | 60 nM/min | 0.605 s⁻¹ | 3.32 s⁻¹ | 1.02 s⁻¹ | 1.44 s⁻¹ | 1.89 s⁻¹
